Eight substances from IntAct's records for PubMed 26859457 can be followed below.

The target in one assay is unc5b_rat Unc5b (UniProt O08722).
Sequence of unc5b_rat Unc5b (O08722 whole entry): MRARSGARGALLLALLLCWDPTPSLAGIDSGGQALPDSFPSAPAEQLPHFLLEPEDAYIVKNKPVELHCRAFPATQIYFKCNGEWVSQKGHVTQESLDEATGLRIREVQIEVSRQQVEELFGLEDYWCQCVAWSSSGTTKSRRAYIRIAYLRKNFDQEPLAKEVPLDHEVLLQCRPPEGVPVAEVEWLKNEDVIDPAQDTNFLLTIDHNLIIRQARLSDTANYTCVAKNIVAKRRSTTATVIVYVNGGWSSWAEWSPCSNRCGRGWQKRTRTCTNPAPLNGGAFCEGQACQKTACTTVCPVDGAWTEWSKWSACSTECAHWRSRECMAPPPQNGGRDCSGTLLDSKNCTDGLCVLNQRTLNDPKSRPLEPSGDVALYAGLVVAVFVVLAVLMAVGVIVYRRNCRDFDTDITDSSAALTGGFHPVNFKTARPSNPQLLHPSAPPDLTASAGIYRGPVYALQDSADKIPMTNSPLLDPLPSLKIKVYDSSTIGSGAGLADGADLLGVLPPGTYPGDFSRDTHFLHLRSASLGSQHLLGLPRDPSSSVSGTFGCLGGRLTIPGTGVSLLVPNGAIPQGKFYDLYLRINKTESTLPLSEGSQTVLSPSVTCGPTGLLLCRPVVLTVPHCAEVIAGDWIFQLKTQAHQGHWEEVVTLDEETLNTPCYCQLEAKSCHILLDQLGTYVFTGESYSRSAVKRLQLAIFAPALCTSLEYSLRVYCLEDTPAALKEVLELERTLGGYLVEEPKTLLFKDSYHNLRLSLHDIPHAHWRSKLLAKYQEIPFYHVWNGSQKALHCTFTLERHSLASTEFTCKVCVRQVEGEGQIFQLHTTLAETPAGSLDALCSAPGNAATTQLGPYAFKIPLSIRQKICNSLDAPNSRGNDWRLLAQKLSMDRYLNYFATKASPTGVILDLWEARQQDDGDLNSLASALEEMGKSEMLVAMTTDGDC

Sequence of Unc5b, Q8K1S3-1 (Q8K1S3 whole entry): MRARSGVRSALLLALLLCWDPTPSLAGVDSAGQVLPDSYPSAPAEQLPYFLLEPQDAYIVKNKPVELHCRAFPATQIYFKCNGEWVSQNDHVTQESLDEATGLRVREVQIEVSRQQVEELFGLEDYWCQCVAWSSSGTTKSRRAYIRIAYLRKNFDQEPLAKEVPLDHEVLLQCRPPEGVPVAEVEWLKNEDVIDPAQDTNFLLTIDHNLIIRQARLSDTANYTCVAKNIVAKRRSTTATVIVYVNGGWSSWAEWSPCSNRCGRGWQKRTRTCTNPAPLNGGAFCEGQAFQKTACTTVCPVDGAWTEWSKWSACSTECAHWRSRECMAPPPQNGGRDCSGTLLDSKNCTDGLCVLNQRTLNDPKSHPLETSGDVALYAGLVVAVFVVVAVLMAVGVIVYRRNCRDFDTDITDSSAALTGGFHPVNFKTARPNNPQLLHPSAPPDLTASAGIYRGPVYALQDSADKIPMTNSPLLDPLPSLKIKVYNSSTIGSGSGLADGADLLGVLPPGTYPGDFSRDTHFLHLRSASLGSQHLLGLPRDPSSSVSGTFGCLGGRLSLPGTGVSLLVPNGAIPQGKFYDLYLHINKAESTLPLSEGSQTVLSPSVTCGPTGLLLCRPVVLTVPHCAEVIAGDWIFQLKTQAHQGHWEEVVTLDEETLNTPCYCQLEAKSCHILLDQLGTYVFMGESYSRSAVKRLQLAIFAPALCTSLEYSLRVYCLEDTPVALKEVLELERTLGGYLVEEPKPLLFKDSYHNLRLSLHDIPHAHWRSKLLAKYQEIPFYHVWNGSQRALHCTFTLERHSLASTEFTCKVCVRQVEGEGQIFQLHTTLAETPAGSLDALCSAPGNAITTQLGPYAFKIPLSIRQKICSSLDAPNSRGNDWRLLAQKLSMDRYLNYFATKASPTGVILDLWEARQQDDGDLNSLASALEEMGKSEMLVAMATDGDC

Consider “Netrin-1 (Homo sapiens) (from UniProt O95631) K358L”, for which the “effect of a mutation on the interaction” value in the assay with unc5b_rat Unc5b was “decreasing interaction strength”.

For the substance “Netrin-1 (Homo sapiens) (from UniProt O95631) N353A”, the “effect of a mutation on the interaction” value with unc5b_rat Unc5b is recorded as “decreasing interaction strength”.

As for “Netrin-1 (Homo sapiens) (from UniProt O95631) R348A;R349A;R351A”, in the assay with unc5b_rat Unc5b, the “effect of a mutation on the interaction” value was “decreasing interaction strength”.

“Netrin-1 (Homo sapiens) (from UniProt O95631) R348W”: in the assay with unc5b_rat Unc5b, the “effect of a mutation on the interaction” value is “with no effect”.

Take “Netrin-1 (Homo sapiens) (from UniProt O95631) S360A”: the “effect of a mutation on the interaction” value with unc5b_rat Unc5b is reported as “decreasing interaction strength”.

For the substance “Netrin-1 (Homo sapiens) (from UniProt O95631) Y357F”, the “effect of a mutation on the interaction” value with unc5b_rat Unc5b is recorded as “with no effect”.

Turning to “Netrin-1 (Mus musculus) (from UniProt O09118) R348A;R349A”, the “effect of a mutation on the interaction” value with Unc5b, Q8K1S3-1 was “disrupting interaction strength”.

As to “Netrin-1 (Mus musculus) (from UniProt O09118) R351A;N353A”, the “effect of a mutation on the interaction” value with Unc5b, Q8K1S3-1 is on record as “decreasing interaction strength”.
